Experimental data taken from publication PMC3928310, “Model of a DNA-Protein Complex of the Architectural Monomeric Protein MC1 from Euryarchaea”.

Key:
Test in all cases: EMSA; EMSA: 10 mM Tris-HCl pH 7.5, 150 mM NaCl, 1 mM EDTA, 15 ug/ml BSA, 8% glycerol, 15 min at 20 C, 0.1 nM DNA, TBE gel; NMR PRE: 10 mM phosphate pH 6, 100 mM NaCl, 10% D2O
Conditions in all cases: protein: recombinant; label: 5'-32P on one strand; blunt
MC1 P72A = target: T1, MC1 P72A (Methanosarcina thermophila CHTI55, UniProt P12770 1-93, P72A)
T1 sequence: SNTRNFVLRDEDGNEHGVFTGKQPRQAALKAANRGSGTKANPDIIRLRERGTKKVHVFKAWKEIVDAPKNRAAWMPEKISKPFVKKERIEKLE

MC1 R25A = target: T2, MC1 R25A (Methanosarcina thermophila CHTI55, UniProt P12770 1-93, R25A)
T2 sequence: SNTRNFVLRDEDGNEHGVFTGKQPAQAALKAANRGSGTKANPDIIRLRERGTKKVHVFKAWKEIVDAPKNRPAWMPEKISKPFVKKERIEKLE

MC1 R71A = target: T3, MC1 R71A (Methanosarcina thermophila CHTI55, UniProt P12770 1-93, R71A)
T3 sequence: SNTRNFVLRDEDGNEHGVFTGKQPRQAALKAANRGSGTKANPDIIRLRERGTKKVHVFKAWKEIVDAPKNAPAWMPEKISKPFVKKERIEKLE

MC1 I89A = target: T4, MC1 I89A (Methanosarcina thermophila CHTI55, UniProt P12770 1-93, I89A)
T4 sequence: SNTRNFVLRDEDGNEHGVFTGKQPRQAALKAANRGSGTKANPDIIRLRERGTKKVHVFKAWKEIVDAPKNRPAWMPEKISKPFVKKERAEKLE

MC1 Q23E = target: T5, MC1 Q23E (Methanosarcina thermophila CHTI55, UniProt P12770 1-93, Q23E)
T5 sequence: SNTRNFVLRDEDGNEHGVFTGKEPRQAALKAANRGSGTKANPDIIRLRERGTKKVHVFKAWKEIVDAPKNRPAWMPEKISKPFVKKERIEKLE

MC1 R25Q = target: T6, MC1 R25Q (Methanosarcina thermophila CHTI55, UniProt P12770 1-93, R25Q)
T6 sequence: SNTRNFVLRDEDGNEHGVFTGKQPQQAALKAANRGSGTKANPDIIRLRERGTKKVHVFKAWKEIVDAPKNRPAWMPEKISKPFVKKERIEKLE

MC1 W74F = target: T7, MC1 W74F (Methanosarcina thermophila CHTI55, UniProt P12770 1-93, W74F)
T7 sequence: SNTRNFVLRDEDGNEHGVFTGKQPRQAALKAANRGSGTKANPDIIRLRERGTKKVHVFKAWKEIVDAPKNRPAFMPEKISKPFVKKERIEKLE

B1: 26 bp EMSA duplex (dsDNA)
DNA 1: GCCTCAAAAACACACACCCCCGACAG
DNA 2: CTGTCGGGGGTGTGTGTTTTTGAGGC
Question: B1 was tested. Which Kd (MC1 P72A) did it give?
Answer: The Kd was 4.2 ± 0.5 nM.

Question: What about the Kd (MC1 R25A) of the same binder?
Answer: The Kd was 161 ± 14 nM.

Question: What about the Kd (MC1 R71A) of the same binder?
Answer: The Kd was 3.6 ± 0.2 nM.

Question: What about the Kd (MC1 I89A) of the same binder?
Answer: The Kd was 15.4 ± 2 nM.

Question: And the Kd (MC1 Q23E)?
Answer: The Kd was 9.05 ± 2 nM.

Question: What about the Kd (MC1 R25Q) of the same binder?
Answer: The Kd was 552 ± 34 nM.

Question: What about the Kd (MC1 W74F) of the same binder?
Answer: Its Kd is 8.4 ± 1 nM.
